# Measurements reported in patent publication US10245299B2, “Autoassembling peptides for the treatment of pulmonary bulla” (3-D MATRIX, LTD., priority 2014, dated 2019).
# Where no end group is shown, it is not given here.
# Tests used:
# [1] = Rheological properties of pH adjusted peptide solutions and hydrogels; assay type: physicochemical; details: KLD12 1%, IEIK13 1%, PuraMatrix® 1% and 2.5%
# Description: Based on the visual observation of the effect of pH level on the properties of the peptide solutions, the effect on the rheological properties of the peptide solutions after adjusting their pH level to 3.4 (PuraMatrix® and KLD12) or 3.7 (IEIK13) was evaluated. If the pH levels of peptide solutions are higher than 3.5 (PuraMatrix® and KLD12) or 3.7 (IEIK13), the peptide solution began phase separation becoming cloudy. The rheological properties of PuraMatrix®, KLD12 and IEIK13 solutions were higher at pH 3.4. The results are shown in FIG. 2 for KLD12 1%, FIG. 3 for IEIK13 1%, and FIGS. 4-5 for PuraMatrix® 1% and 2.5%, respectively. Stress sweep tests were performed at 10 rad/s. Frequency sweep tests were performed at 1 Pa.
# Based on the results of the effect on the rheological properties of the peptide solutions after adjusting their pH level to 3.4 (PuraMatrix® and KLD12) or 3.7 (IEIK13), the effect on the rheological properties of the peptide solutions at various pH levels was evaluated. […] The rheological properties of peptides were evaluated at various concentrations using a rheometer (DHR-1, TA Instruments) with 20 mm plates. The results are shown in FIG. 6A for PuraMatrix® 2.5% solution and FIG. 6B for IEIK13 1.5% solution, respectively. Frequency sweep tests were performed from 1 rad/sec to 10 rad/sec at 1 Pa and the storage modulus at 1 rad/sec was selected for data.
# Based on the results of the effect on the rheological properties of the peptide solutions after adjusting their pH level, the effect on the rheological properties of the peptide hydrogels at various pH after DMEM treatment was evaluated and compared to the effect on the rheological properties of the peptide solutions at various pH before DMEM treatment. […] The results are shown in FIGS. 7A-7B for PuraMatrix® and FIGS. 8A-8B for IEIK (SEQ ID NO: 5), respectively. Frequency sweep tests were performed from 1 rad/sec to 10 rad/sec at 1 Pa and the storage modulus at 1 rad/sec was selected for data.
# [2] = Appearance of 1.5% peptide solutions with various salts at room temperature; assay type: physicochemical; details: for Appearance: KLD12 solution, room temperature
# Description: The effect of salt ionic strength level on the properties of peptide solutions was evaluated to identify optimized salt ionic strength levels for the peptides as described herein. Increasing the salt ionic strength level of PuraMatrix® and other peptides may generally improve its function and mechanical strength for various clinical applications. To adjust the salt ionic strength of the peptide solutions by way of example, various salt buffer solutions including NaCl, KCl, MgCl2, CaCl2 and DPBS (10×) were added to 2 mL of 1.5% peptide solutions.
sequence,measurement,setting,value
KLDLKLDLKLDL [KLD12],rheological properties of solutions at pH 3.4,[1],higher
same,Appearance,"[2]; conc. 1.3%, KCl 0.4 M, ionic strength 0.4 M","Cloudy, phase-separated"
same,Appearance,"[2]; conc. 1.3%, NaCl 0.4 M, ionic strength 0.4 M","Cloudy, phase-separated"
same,Appearance,"[2]; conc. 1.32%, KCl 0.35 M, ionic strength 0.35 M","Slightly cloudy, brittle gel"
same,Appearance,"[2]; conc. 1.32%, NaCl 0.35 M, ionic strength 0.35 M","Slightly cloudy, brittle gel"
same,Appearance,"[2]; conc. 1.35%, KCl 0.3 M, ionic strength 0.3 M","Slightly cloudy, thick, stiffer gel"
same,Appearance,"[2]; conc. 1.35%, NaCl 0.3 M, ionic strength 0.3 M","Slightly cloudy, thick, stiffer gel"
same,Appearance,"[2]; conc. 1.38%, KCl 0.25 M, ionic strength 0.25 M","Clear, thick, stiffer gel"
same,Appearance,"[2]; conc. 1.38%, NaCl 0.25 M, ionic strength 0.25 M","Clear, thick, stiffer gel"
same,Appearance,"[2]; conc. 1.4%, KCl 0.2 M, ionic strength 0.2 M","Clear, thick, stiffer gel"
same,Appearance,"[2]; conc. 1.4%, NaCl 0.2 M, ionic strength 0.2 M","Clear, thick, stiffer gel"
same,Appearance,"[2]; conc. 1.42%, CaCl2 0.167 M, ionic strength 0.5 M","Cloudy, phase-separated"
same,Appearance,"[2]; conc. 1.42%, MgCl2 0.167 M, ionic strength 0.5 M","Cloudy, phase-separated"
same,Appearance,"[2]; conc. 1.43%, CaCl2 0.133 M, ionic strength 0.4 M","Slightly cloudy, thick, stiffer gel"
same,Appearance,"[2]; conc. 1.43%, CaCl2 0.15 M, ionic strength 0.45 M","Slightly cloudy, brittle gel"
same,Appearance,"[2]; conc. 1.43%, KCl 0.15 M, ionic strength 0.15 M","Clear, thick, stiffer gel"
same,Appearance,"[2]; conc. 1.43%, MgCl2 0.133 M, ionic strength 0.4 M","Slightly cloudy, thick, stiffer gel"
same,Appearance,"[2]; conc. 1.43%, MgCl2 0.15 M, ionic strength 0.45 M","Slightly cloudy, brittle gel"
same,Appearance,"[2]; conc. 1.43%, NaCl 0.15 M, ionic strength 0.15 M","Clear, thick, stiffer gel"
same,Appearance,"[2]; conc. 1.44%, CaCl2 0.117 M, ionic strength 0.35 M","Clear, thick, stiffer gel"
same,Appearance,"[2]; conc. 1.44%, MgCl2 0.117 M, ionic strength 0.35 M","Clear, thick, stiffer gel"
same,Appearance,"[2]; conc. 1.45%, CaCl2 0.1 M, ionic strength 0.3 M","Clear, thick, stiffer gel"
same,Appearance,"[2]; conc. 1.45%, KCl 0.1 M, ionic strength 0.1 M","Clear, thick, stiffer gel"
same,Appearance,"[2]; conc. 1.45%, MgCl2 0.1 M, ionic strength 0.3 M","Clear, thick, stiffer gel"
same,Appearance,"[2]; conc. 1.45%, NaCl 0.1 M, ionic strength 0.1 M","Clear, thick, stiffer gel"
same,Appearance,"[2]; conc. 1.46%, CaCl2 0.083 M, ionic strength 0.25 M","Clear, thick, stiffer gel"
same,Appearance,"[2]; conc. 1.46%, MgCl2 0.083 M, ionic strength 0.25 M","Clear, thick, stiffer gel"
same,Appearance,"[2]; conc. 1.47%, CaCl2 0.067 M, ionic strength 0.2 M","Clear, thick, stiffer gel"
same,Appearance,"[2]; conc. 1.47%, MgCl2 0.067 M, ionic strength 0.2 M","Clear, thick, stiffer gel"
same,Appearance,"[2]; conc. 1.48%, CaCl2 0.05 M, ionic strength 0.15 M","Clear, thick, stiffer gel"
same,Appearance,"[2]; conc. 1.48%, KCl 0.05 M, ionic strength 0.5 M","Clear, thick, stiffer gel"
same,Appearance,"[2]; conc. 1.48%, MgCl2 0.05 M, ionic strength 0.15 M","Clear, thick, stiffer gel"
same,Appearance,"[2]; conc. 1.48%, NaCl 0.05 M, ionic strength 0.5 M","Clear, thick, stiffer gel"
same,Appearance,"[2]; conc. 1.5%, CaCl2 0 M, ionic strength 0 M","Clear, thick gel"
same,Appearance,"[2]; conc. 1.5%, KCl 0 M, ionic strength 0 M","Clear, thick gel"
same,Appearance,"[2]; conc. 1.5%, MgCl2 0 M, ionic strength 0 M","Clear, thick gel"
same,Appearance,"[2]; conc. 1.5%, NaCl 0 M, ionic strength 0 M","Clear, thick gel"
same,salt ionic strength increase that did not change the clear color of the solution (apparent stiffness increased),"[2]; depending on different salts, 1.5% peptide solutions",0.25˜0.35 M
